Assay results as given in article PMC3681970, “Biochemical Characterization of UDP-N-acetylmuramoyl-L-alanyl-D-glutamate: meso-2,6-diaminopimelate ligase (MurE) from Verrucomicrobium spinosum DSM 4136^T” (PLoS ONE, 2013).

Columns and labels:
Assay in all cases: radiometric HPLC ligase assay, Michaelis-Menten fit
Type in all cases: biochemical, Verrucomicrobium spinosum
[1] = substrate: Nc1ncnc2c1ncn2[C@@H]1O[C@H](COP(=O)(O)OP(=O)(O)OP(=O)(O)O)[C@@H](O)[C@H]1O; settings: 100 mM Tris-HCl pH 9.6, 30 mM MgCl2, 37°C, other substrates fixed (standard 150 µM UDP-MurNAc-L-Ala-D-[14C]Glu, 150 µM meso-A2pm)
[2] = substrate: CC(=O)N[C@H]1[C@@H](OP(=O)(O)OP(=O)(O)OC[C@H]2O[C@@H](n3ccc(=O)[nH]c3=O)[C@H](O)[C@@H]2O)O[C@H](CO)[C@@H](O)[C@@H]1O[C@H](C)C(=O)N[C@@H](C)C(=O)N[C@H](CCC(=O)O)C(=O)O; settings: 100 mM Tris-HCl pH 9.6, 30 mM MgCl2, 37°C, other substrates fixed (standard 5 mM ATP, 150 µM meso-A2pm), labelled compound (14C in D-Glu)
[3] = substrate: N[C@H](CCC[C@H](N)C(=O)O)C(=O)O; settings: 100 mM Tris-HCl pH 9.6, 30 mM MgCl2, 37°C, other substrates fixed (standard 5 mM ATP, 150 µM UDP-MurNAc-L-Ala-D-[14C]Glu)

B1: MurEVs (Verrucomicrobium spinosum) (protein)
chain: MTILRDLIEGLDKPVISGGLDVEVAGLAYDSRLVKPGFVFFALRGVKSDGHDFIPKALAEGAVAIVAETAPPEDCSVTWLHVKNARVALAEMAAAYKGHPARSMAVGGVTGTNGKTTTAFLLHHLLNHAHRRCGLLGTVVYDVGGDLKPATHTTPESLELQGLLSEMRDRGCVAVAMEVSSHAIDQHRTHGVPFAAAVFTNLSQDHLDYHGTMEEYFKAKSKLFSSTAASRSGKLVINVDDIWGRRLVDAHKEHPGLVTYGLGVAADYRAVNPRYDLTGTSFELEHKGRSLLVRIPQIGQFNVYNSLAALAAAHGMGCNLRDTVKAMQSSPQIPGRMERVTPDNHSFHVFVDYAHTPDGLVNALSTARALRPERIITVFGCGGDRDRLKRPLMARAVEEHSDISILTSDNPRTEDPQAIMDDARKGFTRSAHALIADRKEAIHTAIKGAREGDIVVIAGKGHEPYQDVQGVKHPFDDRRVARQLVDIEIRIKGEKRLEARQRRDDRQ
For B1, the Km [1] was 290 ± 70 µM, the Km [2] was 24 ± 6 µM and the Km [3] was 17 ± 3 µM.
